Results reported in PMC8316464.

What was measured:
Assay in all cases: SPR; Biacore S200; Bcl-2 family proteins immobilised on CM5 (amine coupling or His-Capture Kit); peptides and flag-tagged proteins as analytes, single-cycle kinetics, HBS-EP, 25 °C; 1:1 Langmuir model; absence of binding probed at 100 nM and 3 µM
[1] = target: Bcl-2 (human) (UniProt P10415)
[2] = target: Bcl-xL (human) (UniProt Q07817)
[3] = target: His-tagged human Mcl-1 (human) (UniProt Q07820)
Chain of His-tagged human Mcl-1 (human) (Q07820 whole entry): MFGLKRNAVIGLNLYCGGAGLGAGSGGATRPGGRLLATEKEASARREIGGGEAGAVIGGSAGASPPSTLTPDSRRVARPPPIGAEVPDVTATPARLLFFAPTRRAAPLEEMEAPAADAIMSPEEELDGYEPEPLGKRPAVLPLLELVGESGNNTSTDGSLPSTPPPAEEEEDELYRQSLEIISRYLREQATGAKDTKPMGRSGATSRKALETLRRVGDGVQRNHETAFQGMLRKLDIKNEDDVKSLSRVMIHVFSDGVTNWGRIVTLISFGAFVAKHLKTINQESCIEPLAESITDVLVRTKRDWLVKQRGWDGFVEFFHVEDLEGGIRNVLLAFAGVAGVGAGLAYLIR

Chain of Bcl-xL (human) (Q07817 whole entry): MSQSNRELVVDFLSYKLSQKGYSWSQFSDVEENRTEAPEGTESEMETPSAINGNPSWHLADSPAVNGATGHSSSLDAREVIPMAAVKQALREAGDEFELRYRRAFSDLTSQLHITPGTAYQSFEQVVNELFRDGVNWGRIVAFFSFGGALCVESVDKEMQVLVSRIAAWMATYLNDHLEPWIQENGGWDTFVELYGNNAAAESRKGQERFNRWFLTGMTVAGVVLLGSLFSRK

## ESQEDIIRNIARHLAQVGDSMDRSI [Bid BH3 peptide (25-mer, residues 77-101)]
[1]
  Kd: 96.7 nM
[2]
  Kd: 7.12 nM
[3]
  Kd: 12.8 nM

## ESQEDIIRNIIRHLAQVGDSMDRSI [Bid (A87I) peptide]
[1]
  Kd: 158 nM
[2]
  Kd: 28.5 nM
